{"source": "FireProtDB (doi:10.1016/s0022-2836(02)00630-7)", "conditions": "Escherichia coli (strain K12), pH 7, CD, Potassium phosphate 10 mM, reversible: yes"}
{"substance": "Phosphocarrier protein HPr wild type, P0AA04", "values": [{"measurement": "denaturant m value", "setting": "25 °C, Urea", "value": 1.06, "unit": "kcal/mol/M"}, {"measurement": "denaturant midpoint (higher = more stable)", "setting": "25 °C, Urea", "value": 4.34, "unit": "M"}, {"measurement": "Tm", "setting": "Thermal", "value": 63.4, "unit": "°C"}, {"measurement": "unfolding enthalpy (van 't Hoff)", "setting": "Thermal", "value": 75.8, "unit": "kcal/mol"}]}
